Test results taken from the supplement of paper PMC9112550, “Optimization of the antimicrobial peptide Bac7 by deep mutational scanning” (BMC Biology, 2022).
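Also: peptides expressed intracellularly from a pBAD plasmid library in pooled LB shake-flask culture, induced with 0.3% L-arabinose, DNA abundance read by NGS, three biological replicates, DESeq2 with apeglm shrinkage.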

These sequences were tested on Escherichia coli TOP10 (assay: shrunken log2 fold change of peptide-encoding DNA abundance (4.5 h post-induction vs induction); higher = less antimicrobial activity (less host growth inhibition)). Details: time post-induction: 4.5 h; library: site-saturation at positions 5, 18, 19, 20.
With RRIRPRPPRLPRPRPRPQAQPRP the “shrunken log2 fold change” value was 0.143.
In the case of RRIRGRPPRLPRPRPRPELYPRP, the “shrunken log2 fold change” value is reported as 1.14.
With RRIRTRPPRLPRPRPRPQGRPRP the “shrunken log2 fold change” value was -0.0678.
For RRIRIRPPRLPRPRPRPGFIPRP, the “shrunken log2 fold change” value was -0.391.
For RRIRHRPPRLPRPRPRPCMWPRP, the “shrunken log2 fold change” value was -0.193.
RRIRYRPPRLPRPRPRPQWWPRP was tested, and the “shrunken log2 fold change” value was 0.0898.
With RRIRWRPPRLPRPRPRPEMSPRP the “shrunken log2 fold change” value was -0.0114.
RRIRNRPPRLPRPRPRPDPKPRP was tested, and the “shrunken log2 fold change” value was -0.00647.
For RRIRYRPPRLPRPRPRPHGKPRP, the “shrunken log2 fold change” value was 0.0161.
With RRIRARPPRLPRPRPRPQCMPRP the “shrunken log2 fold change” value was 0.153.
In the case of RRIRARPPRLPRPRPRPDRGPRP, the “shrunken log2 fold change” value is reported as -0.283.
With RRIRRRPPRLPRPRPRPWYCPRP the “shrunken log2 fold change” value was -0.21.
With RRIRRRPPRLPRPRPRPIMNPRP the “shrunken log2 fold change” value was -0.347.
With RRIRIRPPRLPRPRPRPKYKPRP the “shrunken log2 fold change” value was -0.775.
RRIRERPPRLPRPRPRPMMMPRP was tested, and the “shrunken log2 fold change” value was -0.182.
In the case of RRIRKRPPRLPRPRPRPQPTPRP, the “shrunken log2 fold change” value is reported as 0.5.
In the case of RRIRGRPPRLPRPRPRPIATPRP, the “shrunken log2 fold change” value is reported as 3.
With RRIRMRPPRLPRPRPRPGVHPRP the “shrunken log2 fold change” value was 0.0493.
In the case of RRIRERPPRLPRPRPRPTTTPRP, the “shrunken log2 fold change” value is reported as -0.0224.
RRIRFRPPRLPRPRPRPTKSPRP was tested, and the “shrunken log2 fold change” value was 0.106.
With RRIRARPPRLPRPRPRPSVPPRP the “shrunken log2 fold change” value was -0.179.
With RRIRLRPPRLPRPRPRPRWHPRP the “shrunken log2 fold change” value was 0.199.
In the case of RRIRDRPPRLPRPRPRPYNSPRP, the “shrunken log2 fold change” value is reported as -0.237.
RRIRRRPPRLPRPRPRPKTVPRP was tested, and the “shrunken log2 fold change” value was 0.233.
With RRIRVRPPRLPRPRPRPAETPRP the “shrunken log2 fold change” value was 0.344.
With RRIRIRPPRLPRPRPRPPLKPRP the “shrunken log2 fold change” value was -0.105.
For RRIRKRPPRLPRPRPRPNQSPRP, the “shrunken log2 fold change” value was 0.341.
With RRIRMRPPRLPRPRPRPCKRPRP the “shrunken log2 fold change” value was 0.00656.
With RRIRPRPPRLPRPRPRPRGYPRP the “shrunken log2 fold change” value was 0.523.
With RRIRTRPPRLPRPRPRPGHFPRP the “shrunken log2 fold change” value was -0.215.
With RRIRRRPPRLPRPRPRPGSHPRP the “shrunken log2 fold change” value was -0.154.
For RRIRCRPPRLPRPRPRPYTYPRP, the “shrunken log2 fold change” value was -0.456.
RRIRARPPRLPRPRPRPVQEPRP was tested, and the “shrunken log2 fold change” value was 0.509.
With RRIRMRPPRLPRPRPRPIRGPRP the “shrunken log2 fold change” value was -0.00871.
With RRIRYRPPRLPRPRPRPHICPRP the “shrunken log2 fold change” value was -0.0358.
In the case of RRIRTRPPRLPRPRPRPTCQPRP, the “shrunken log2 fold change” value is reported as 0.234.
For RRIRVRPPRLPRPRPRPMMAPRP, the “shrunken log2 fold change” value was -0.12.
With RRIRNRPPRLPRPRPRPMVRPRP the “shrunken log2 fold change” value was 4.1.
With RRIRLRPPRLPRPRPRPSQPPRP the “shrunken log2 fold change” value was -0.0367.
With RRIRKRPPRLPRPRPRPEFLPRP the “shrunken log2 fold change” value was -0.00158.
RRIRWRPPRLPRPRPRPPYGPRP was tested, and the “shrunken log2 fold change” value was -0.0783.
For RRIRVRPPRLPRPRPRPPRDPRP, the “shrunken log2 fold change” value was 0.303.
In the case of RRIRNRPPRLPRPRPRPPWNPRP, the “shrunken log2 fold change” value is reported as 0.0711.
For RRIRIRPPRLPRPRPRPCENPRP, the “shrunken log2 fold change” value was -0.00127.
RRIRTRPPRLPRPRPRPWVFPRP was tested, and the “shrunken log2 fold change” value was 0.0157.
RRIRKRPPRLPRPRPRPFIDPRP was tested, and the “shrunken log2 fold change” value was 0.0226.
In the case of RRIRVRPPRLPRPRPRPYLYPRP, the “shrunken log2 fold change” value is reported as -1.05.
RRIRWRPPRLPRPRPRPWGPPRP was tested, and the “shrunken log2 fold change” value was 0.384.
With RRIRKRPPRLPRPRPRPLREPRP the “shrunken log2 fold change” value was 0.718.
RRIRVRPPRLPRPRPRPEYDPRP was tested, and the “shrunken log2 fold change” value was -0.0844.
With RRIRYRPPRLPRPRPRPCIHPRP the “shrunken log2 fold change” value was -0.0152.
In the case of RRIRERPPRLPRPRPRPKDFPRP, the “shrunken log2 fold change” value is reported as -0.00088.
RRIRMRPPRLPRPRPRPDVNPRP was tested, and the “shrunken log2 fold change” value was 0.0361.
In the case of RRIRNRPPRLPRPRPRPAMHPRP, the “shrunken log2 fold change” value is reported as -0.273.
In the case of RRIRTRPPRLPRPRPRPTINPRP, the “shrunken log2 fold change” value is reported as -0.565.
With RRIRNRPPRLPRPRPRPKIAPRP the “shrunken log2 fold change” value was 0.0241.
In the case of RRIRQRPPRLPRPRPRPGYDPRP, the “shrunken log2 fold change” value is reported as -0.0645.
RRIRFRPPRLPRPRPRPDVLPRP was tested, and the “shrunken log2 fold change” value was -0.0865.
For RRIRLRPPRLPRPRPRPLQPPRP, the “shrunken log2 fold change” value was 0.206.
With RRIRPRPPRLPRPRPRPERMPRP the “shrunken log2 fold change” value was 0.122.
For RRIRTRPPRLPRPRPRPWMSPRP, the “shrunken log2 fold change” value was 0.00487.
In the case of RRIRPRPPRLPRPRPRPRAEPRP, the “shrunken log2 fold change” value is reported as 0.526.
With RRIRHRPPRLPRPRPRPRLSPRP the “shrunken log2 fold change” value was -0.0962.
RRIRWRPPRLPRPRPRPLFDPRP was tested, and the “shrunken log2 fold change” value was 0.0264.
In the case of RRIRYRPPRLPRPRPRPEEIPRP, the “shrunken log2 fold change” value is reported as -0.00965.
For RRIRNRPPRLPRPRPRPVGVPRP, the “shrunken log2 fold change” value was -0.0443.
In the case of RRIRQRPPRLPRPRPRPIHHPRP, the “shrunken log2 fold change” value is reported as -0.167.
For RRIRSRPPRLPRPRPRPCNWPRP, the “shrunken log2 fold change” value was -0.128.
In the case of RRIRKRPPRLPRPRPRPPGDPRP, the “shrunken log2 fold change” value is reported as 0.905.
In the case of RRIRFRPPRLPRPRPRPRYPPRP, the “shrunken log2 fold change” value is reported as -0.38.
RRIRRRPPRLPRPRPRPKWEPRP was tested, and the “shrunken log2 fold change” value was 0.364.
In the case of RRIRCRPPRLPRPRPRPGGHPRP, the “shrunken log2 fold change” value is reported as 0.286.
RRIRKRPPRLPRPRPRPNEPPRP was tested, and the “shrunken log2 fold change” value was 0.027.
For RRIRGRPPRLPRPRPRPQNGPRP, the “shrunken log2 fold change” value was 3.22.
For RRIRKRPPRLPRPRPRPAVKPRP, the “shrunken log2 fold change” value was -0.104.
